According to publication PMC3039559, “A Blue Native-PAGE analysis of membrane protein complexes in Clostridium thermocellum” (BMC Microbiology, 2011):

B1: Carboxyl transferase (Cthe_0699) (enzyme, UniProt A3DDA5 1-516, looked up)
chain: MDKVDKIGLLREKLAQVEQGGGAEKIAKQHDAGKMTARERIQALFDENSFVEIDTFVETRSIDFDMQKKKVPGDGVVTGYGSIDGRLVFVAAQDFTVIGGSLGEMHAAKITKVMDMAMKMGAPFISINDSGGARIEEGIDALKGFGDIFYRNTLASGVIPQISVIMGPCAGGAVYSPAITDFIFMVDKTSQMFITGPQVIKSVTGEDVTFEKLGGAETHNSISGVAHFRSSSEKECIEQIKKLISYLPDNNLSDVPIVPTQDDINRITDNLVDIIPQDSNKPYDMMEIITSVVDNGDFFEIQKDFAKNIIIGFGRMNGGTVGIVANQPKVAAGVLDVNSSDKAARFVRFCDAFNIPIITFTDVPGYLPGVGQEHSGVIRHGAKLLYAFSEATVPKINVIVRKAYGGAYIAMNSKHLGADMVFAWPSAEIAVMGPEGAANIIFKKDIAAADDPMETRKRLIEEYREKFSNPYVAASRGYVDDVIDPATTRIRLISALEMLASKRENRPAKKHGNIPL
notes: carboxyl transferase with two carboxyl transferase domains, Clostridium thermocellum ATCC 27405, locus Cthe_0699, 56 kDa; also called spots 4 and 15; source: endogenous, C. thermocellum membrane fraction solubilised with 1.0% DDM
B2: Ornithine carbamoyltransferase (Cthe_1869) (enzyme, UniProt A3DGL1 1-307, looked up)
chain: MEHLISLHDLTVEDFESIFKLAEKLKRQQKEGIPHHLLKGKTLGMIFTKSSTRTRVSFEVGMYQLGGYPLFLSANDIQLGRGETIYDTAQVLSRYVDGIMIRTFAQSDVEDLARYGNVPVINGLTDLMHPCQILADLFTIYEHKGTLKGLKLAYVGDGNNVANSLLHGCAKVGMDIAVASPKGYECDSRIVEEAKEDAKASGANILLTEDPEEAIKDADVVYTDTWVSMGQESEKEERIKVFMPYQVNNTLFSKAHEDAIFLHCLPAYRGYEVTEDVIDGSQSVIFDEAENRLHVQKAIMALLMGNK
notes: ornithine carbamoyltransferase, Clostridium thermocellum ATCC 27405, locus Cthe_1869, 34 kDa; also called OTCase; spot 27; source: endogenous, C. thermocellum membrane fraction solubilised with 1.0% DDM
B3: Polynucleotide phosphorylase/polyadenylase (Cthe_0418) (enzyme, UniProt A3DCH7 1-700, looked up)
chain: MYKTFSMELAGRTLTIETGKLAQLANGSVLVRYGDTVVLSTATASATPREGVDFFPLSVDYEERLYAVGKIPGGFIKREGKPSEKAILTARVIDRPLRPLFPKDLRNDVAIVNTVLSVDQDNSPELAALLGSSIAVSISDIPFNGPVGAVILGLIDGEVIINPTEKQKEISQMYVTLAGTRNKIVMIEAGANEVPDEVMLDAIKKGHEEIKKIVDFIDGIVKEVGKPKFEYESAEVPEEIFNAVREYAYDKMREAVLAVDKQVRDKNIDDLTKEITEHFAEVFPEMEPAIKEAIYKLEKKVVREYILEEGRRVDGRRLDEIRPLSAEVGLLPRVHGSGLFTRGQTQVLSSVTLGAMGDVQILDGIDTEETKRYMHHYNFPGFSVGEAKSSRGPGRREIGHGALAERALEPVIPSEEEFPYTIRVVSEVLMSNGSTSQGSVCGSTLALMDAGVPIKKPVAGISAGLVVDENNPDRFVTFMDIQGIEDFFGDMDFKVAGTKDGITAIQVDIKIDGLTEEIIKQAFELTRKGRLYIIDNVLLKAIPEPRKQMSKYAPKIISTTINPDKIREVIGPGGKMINKIIDETGVKIDINDDGRVYIFSSDIQAGKRARSMIEAIAKDIEPGQVFLGRVIRVTSFGAFVEFLPGKEGLVHISKLDKKRVERVEDIVRVGDQILVKVIEIDKQGRVNLSRKDAMEDEWDK
notes: polynucleotide phosphorylase/polyadenylase, Clostridium thermocellum ATCC 27405, locus Cthe_0418, 77 kDa; also called Polyribonucleotide phosphorylase; PNPase; source: endogenous, C. thermocellum membrane fraction solubilised with 1.0% DDM
B4: Ferritin and Dps (Cthe_0016) (natural protein, UniProt A3DBC9 1-159, looked up)
chain: MSKLYDNLNEQMNFELESAYIYATMSAYLDSLNMKGMTHFFDEQVKEEMEHAGKIKKFLQDTGYGIKYRPLNPGDGKFDSIEDVFKKALAHEKTVTSRINDLVKQAREEGDQRVLNLLAWFVDEQIEEENMFGVLVERLERINGHWNGLYILDKELGER
notes: ferritin (annotated Ferritin and Dps), Clostridium thermocellum ATCC 27405, locus Cthe_0016, 18.6 kDa; also called spots 6 and 7; source: endogenous, C. thermocellum membrane fraction solubilised with 1.0% DDM; copies: 24
B5: ABC transporter related protein (Cthe_3148) (natural protein, UniProt A3DK64 1-632, looked up)
chain: MENNVKKNKKSIVLRLFKDILEFYPVMLPVAIVCILFNATISSIPAVFMQNVIAIVENNWRTGDWNAVGGRILSLVAVLVAFYTLSILSGIAYNQMMAIITQGTLKKFRCKMFARMQTLPIKYVDTHNHGDIMSVYTNDIDTLRQMISQSFPQLLLSGITVLTVFSIMVYFCLWLTIIVLIGVIAMFFVTRRVGGGSAKYFIRQQKALGRVEGFIEEMMNGQKVIKVFCREEEVKKDFDKLNEALFDDARKANRYANILAPILNNIGNVLYVFVAITGGVLLVTNAPNVSLSGLSMGISIVVPFLNMTKQFVGNINQVSQQINAVIMGLAGAQRIYELIDEEPEQDDGYVTLVNVREENGQLIECEERTGIWAWKHPHSSDGSVTYTKLMGDVRLFNVDFEYEPGKSVLHDISLYAKPGQKVAFVGATGAGKTTITNLLNRFYDIADGKIRYDGININKIKKSDLRRAVGIVLQDTNLFTGTVMDNIRYGKLDATDEECIAAAKLAGADDFIRRLPDGYYTMLTENGANLSQGQRQLISIARVAVADPPVMILDEATSSIDTRTEAIVQRGMDALMEGRTVFVIAHRLSTVKNANVIIVLDHGRIIERGTHEELIAQKGQYYQLYTGAFELE
notes: ABC transporter related protein with fused ABC and IM domains, Clostridium thermocellum ATCC 27405, locus Cthe_3148, 70 kDa; also called ABC transporter with fused ABC and IM domains; Class 1 ABC transporter; source: endogenous, C. thermocellum membrane fraction solubilised with 1.0% DDM

Target: the molecule itself
Assay: native gel or EMSA; two-dimensional blue native PAGE (4-15% gel) then SDS-PAGE of the membrane fraction solubilised at 4°C in 1.0% (w/v) DDM; about 40 μg protein; spots identified by MALDI-TOF/TOF; complex mass estimated from BN-PAGE markers

Protein | stoichiometry N
B1 | 4
B2 | 3
B3 | 2
B4 | 24
B5 | 2
